Results as given in PMC7055321.
“And” between values parts separate entries of the source, which are not always exact repeats. Identical values can stand only once.

Biological target: ACE (angiotensin-I converting enzyme) from rabbit lung (rabbit) (UniProt P12822)
Sequence of UniProt P12822 (P12822 34-1310): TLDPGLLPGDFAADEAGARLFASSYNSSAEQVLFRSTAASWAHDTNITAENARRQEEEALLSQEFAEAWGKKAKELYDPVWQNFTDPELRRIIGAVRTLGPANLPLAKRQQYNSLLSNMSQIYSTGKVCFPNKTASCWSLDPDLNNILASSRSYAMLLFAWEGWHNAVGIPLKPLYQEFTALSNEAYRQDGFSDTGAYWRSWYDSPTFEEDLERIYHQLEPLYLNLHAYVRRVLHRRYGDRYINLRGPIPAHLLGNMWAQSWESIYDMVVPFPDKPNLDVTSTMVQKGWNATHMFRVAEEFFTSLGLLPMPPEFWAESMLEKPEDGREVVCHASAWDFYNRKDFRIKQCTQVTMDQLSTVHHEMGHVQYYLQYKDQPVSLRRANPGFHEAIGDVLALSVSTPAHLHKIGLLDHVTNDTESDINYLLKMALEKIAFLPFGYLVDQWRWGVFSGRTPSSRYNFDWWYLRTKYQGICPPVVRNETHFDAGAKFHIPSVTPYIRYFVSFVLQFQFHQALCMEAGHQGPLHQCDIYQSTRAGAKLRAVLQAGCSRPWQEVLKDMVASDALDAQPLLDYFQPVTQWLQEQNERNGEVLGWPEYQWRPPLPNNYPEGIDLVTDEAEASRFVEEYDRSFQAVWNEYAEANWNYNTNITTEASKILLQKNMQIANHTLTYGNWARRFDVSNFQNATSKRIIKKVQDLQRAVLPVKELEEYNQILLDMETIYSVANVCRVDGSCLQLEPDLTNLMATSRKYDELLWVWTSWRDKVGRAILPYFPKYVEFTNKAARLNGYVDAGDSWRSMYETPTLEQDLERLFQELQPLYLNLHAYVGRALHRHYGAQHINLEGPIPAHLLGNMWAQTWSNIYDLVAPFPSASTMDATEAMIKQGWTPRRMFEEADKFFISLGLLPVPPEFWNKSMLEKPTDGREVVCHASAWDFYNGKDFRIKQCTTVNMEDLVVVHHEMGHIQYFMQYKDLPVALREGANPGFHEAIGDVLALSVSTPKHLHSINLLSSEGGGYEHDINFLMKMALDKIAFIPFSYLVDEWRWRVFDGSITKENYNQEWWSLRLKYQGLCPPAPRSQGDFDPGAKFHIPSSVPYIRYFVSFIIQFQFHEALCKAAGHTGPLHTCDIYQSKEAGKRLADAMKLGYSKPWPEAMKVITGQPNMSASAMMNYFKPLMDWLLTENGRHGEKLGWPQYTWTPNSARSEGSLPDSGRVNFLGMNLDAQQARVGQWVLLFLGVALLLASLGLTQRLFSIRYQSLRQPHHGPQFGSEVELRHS

Q: IER tripeptide was tested. Which ACE inhibition (FAPGG hydrolysis, absorbance at 340 nm), IC50 did it give?
A: 0.06 mg/ml and 0.144 mM
